# System: MS2 coat protein
# Assay: apparent KD of MS2 coat protein; designed switch direction (-1 OFF switch, 1 ON switch): 1; higher = weaker reporter binding
# Method in brief: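 Transcription of designed RNA switches on Illumina chips was done by stalled E. coli RNA polymerase. SNAP-549-labelled MS2 coat protein was then titrated in doubling steps from 0.7 or 1.5 nM to 3 µM, with steps of 0.8–1.5 h at the lowest and 10–20 min at the highest concentration. The per-design median over clusters of curve-fitted normalised fluorescence is reported as apparent KD.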
# [1] = input ligand: microRNA oligo, concentration not stated
# [2] = Eterna round: R95, input ligand: FMN 200 uM
# [3] = Eterna round: R95, input ligand: microRNA oligo, concentration not stated
# [4] = Eterna round: R95, input ligand: none
Sequence,apparent KD of MS2 coat protein (input ligand: FMN 200 uM),apparent KD of MS2 coat protein [1],apparent KD of MS2 coat protein (input ligand: none),apparent KD of MS2 coat protein [2],apparent KD of MS2 coat protein [3],apparent KD of MS2 coat protein [4]
"GGUGCCAAUAAAGCCUACAUGAGGAUCACCCAUGUAUGUAGGCAGGAUAUCGUUUGCUUUGCAAACGAGAAGGGCCGAGGCACC [JL SSNG3 1.19] (Eterna round: R96, puzzle: Same State NG 3)",20.4 nM,25.1 nM,42.7 nM,,,
"ACGUGGCUGCCGCAGGAUAUACCCUGUUCCACAUGAGGAUCACCCAUGUUUACGAACUAUGAGAGGUAGAAGGGUGGAUGUCAUU [Beenvean] (Eterna round: R96, puzzle: Same State 2)",12.2 nM,18.9 nM,30.7 nM,,,
"GCAGGAAGCAAAGGAUAUGGAAGAUUACUCAGUCCAGAAGGUUGCUUCUUGGAACAUGAGGAUCACCCAUGUCACCGUUACGGC [Eternabot solution 30] (Eterna round: R96, puzzle: Same State NG 1)",15.8 nM,19 nM,14.5 nM,,,
GCAGAACAUGAGGAUCACCCAUGUCUCUAAUAUCGAGGAUAUGGGCAGGGUAUAUCCCAACCAGAAGGCGAACUGC [SS1 Teenbexe 14] (puzzle: Same State 1),,,,51.7 nM,140 nM,205 nM
"GGAUGAUUAAUAGGAUAUUAGUUGUAAAAUGUUUAAGAAGGAUUAAUGAUUUAAACGACCAGUUACAUGAGGAUCACCCAUGUU [JR_SSNG1_Sub093] (Eterna round: R96, puzzle: Same State NG 1)",,20.6 nM,,,,
AAGAAUCUAUCUCAGGAUAUCAUGUCAAAGACAUGAGGAUCACCCAUGUACCAGGAAACUGGUUAUGAGAAGGGAGAUAGAUUCU [Mat - Same State 2 - Mod - D32] (puzzle: Same State 2),,,,99.4 nM,30.6 nM,282 nM
"UUAGAAUACGCAGGAUAUCGAUGAUUGAUAGUACGAGAAGGGCGAACAUGAGGAUCACCCAUGUAUAUUAAUUUGAGUUUGAAU [JR_SSNG1_Sub076] (Eterna round: R96, puzzle: Same State NG 1)",69.4 nM,120 nM,214 nM,,,
"AUAGUUGCCGAAGGAUAUGAUGAGGAUCACCCAUCAGAAGGUCGGCUAUUGGGUGGACAUGAGGAUCACCCGUGUUCUUUGGUC (Eterna round: R96, puzzle: Same State NG 1)",30.6 nM,22.5 nM,32.3 nM,,,
"UGUUAGUAGACAGGAUAUUGAAUGUUAAGUAUUAACAUGAGGAUCACCCAUGUAUUAGAUUGGUACAAGAAGGGUCAAGUUUGU [JR_SSNG2_Sub012] (Eterna round: R96, puzzle: Same State NG 2)",,242 nM,,,,
"GUACAGAUCACAGGAUAUCACGUCGAUUAGACGUGAGAAGGGUGAUCACACAUGAAUAUUAAUACAUGAGGAUCACCCAUGUAC [SSNG1/16-A2] (Eterna round: R96, puzzle: Same State NG 1)",65.6 nM,22.5 nM,30.6 nM,,,
"UCGGGCGUACUUGCAGACAUGAGGAUCACCCAUGUAAAUGGGAAGGAUAUGGUACCGUUUCGGUACCAGAAGGUCCUGGGUGCU [salish99_SSNG3_r04_308] (Eterna round: R96, puzzle: Same State NG 3)",810 nM,281 nM,1960 nM,,,
"UGUUGUAUUACAGGAUAUCUAUUAGUUUCAUUUAGAGAAGGGUAUUCACAUGAGGAUCACCCAUGUAUAUACGAGGAAGUUGUG [JMF's solution 95] (Eterna round: R96, puzzle: Same State NG 1)",55 nM,44.4 nM,59.6 nM,,,
UAGUACAUGCUUUUUGUCUGUCUUAGAUAACAUGAGGAUCACCCAUGUAAGGUGAAAGUUAUAUAGUUUAUGAAUAU [JR_SHM208A_Sub058] (puzzle: Sensor for hsa-mir-208a),,,,188 nM,346 nM,264 nM
UACAAUCUAUCUGAGGAUAUCAUGAAUUUAACAUGAGGAUCACCCAUGUGCAGGAAAACUGCAUAUGAGAAGGCAGAUAGAUUGU [salish99_ss2_r3_061] (puzzle: Same State 2),,,,71.3 nM,28 nM,94.1 nM
UACAAUCUAUCUGAGGAUAUCAUGAUUUUAACAUGAGGAUCACCCAUGUGCAGGAAAACUGCAUAUGAGAAGGCAGAUAGAUUGU [salish99_ss2_r3_070] (puzzle: Same State 2),,,,199 nM,69.7 nM,178 nM
"UUGAUGUACUGAGGAUAUCGUGUCGUCUGAUUUGACAUGAGGAUCACCCAUGUGGGAAGUGGUAUCGAGAAGGCAGUUUUCUUA [JR_SSNG2_Sub028] (Eterna round: R96, puzzle: Same State NG 2)",151 nM,351 nM,745 nM,,,

Sequence,apparent KD of MS2 coat protein (input ligand: FMN 200 uM),apparent KD of MS2 coat protein [1],apparent KD of MS2 coat protein (input ligand: none),apparent KD of MS2 coat protein [2],apparent KD of MS2 coat protein [3],apparent KD of MS2 coat protein [4]
UCUUGGUUUUUGCUCGUUUUUUGUGUUGAACAUGAGGAUCACCCAUGUAUUGUACAAUCCAAUUUAAUAAUGGUCCA [Mod of one of JR's submissions 3] (puzzle: Sensor for hsa-mir-208a),,,,44.2 nM,42.2 nM,47.8 nM
"GUGGUCAGACAUGAGGAUCACCCAUGUGGAAUAAAUAACACACAGGAUAUGUAAUAUAAAAUAUAACAGAAGGGUGGAUUGGUG (Eterna round: R96, puzzle: Same State NG 3)",,213 nM,,,,
AAAGGACAUGAGGAUCACCCAUGUAGAAAAUACACAGGAUAUCGUCAUAUCGAAUUAUAAUGAGAAGGGUGCAAAA [Vebeinlala] (puzzle: Same State 1),,,,59.9 nM,273 nM,124 nM
AUUAAACAUGAGGAUCACCCAUGUCAACAAAGUCGAGGAUAUGGGCAAAUAAAAUAAGAUCCAGAAGGCGAAUAAU [salish99_ss1_r3_067] (puzzle: Same State 1),,,,55.7 nM,16.8 nM,19.5 nM
"AUUAUUUCAUGAGGAUAUGGCACCUUAUUGGUGCCAGAAGGCAUGUCUAUAAGACAUGAGGAUCACCCAUGUUUAAAUUAUAUA [Eli NG1ss - 90] (Eterna round: R96, puzzle: Same State NG 1)",24.1 nM,164 nM,181 nM,,,
"AAAGGAUGAUUAUACAUGAGGAUCACCCAUGUAAGUUAUACUAAGGAUAUGUGACUUAAUAGUUUACAGAAGGUAGGUUCAUGA [AK SSNG3-V2-2] (Eterna round: R96, puzzle: Same State NG 3)",43.8 nM,69.3 nM,59.9 nM,,,
"AUUGCUAGCACAGGAUAUCAUGCGAAAAUUGCGUGAGAAGGGUGGACUCUGUCAUUCACGGAGGACAUGAGGAUCACCCAUGUC [SameState NG1 #80] (Eterna round: R96, puzzle: Same State NG 1)",193 nM,31.9 nM,62.3 nM,,,
"UAAAGAUCGCGAGGAUAUCGCGAGGAUCACCCGUGAGAAGGCGCAGAGCCGAGGAUCACCCGGCUGAUCCUGAGGAGGAGGUCU (Eterna round: R96, puzzle: Same State NG 1)",124 nM,202 nM,318 nM,,,
"GUGGUGGGUUGAGGAUAUUGGUUGCAUAUGUUUAACAUGAGGAUCACCCAUGUGGGUUGCGGUUUCGAGAAGGUAGGUUGCUGG [salish99_SSNG2_r04_045bad] (Eterna round: R96, puzzle: Same State NG 2)",112 nM,106 nM,112 nM,,,
"CUUUUUCACUAUACAUGAGGAUCACCCAUGUUAUCAUCAUGAGAGGAUAUCGUAAUAGGAUUUUUCGAGAAGGCUCUAAAGUAU [JR_SSNG3_Sub079] (Eterna round: R96, puzzle: Same State NG 3)",26.3 nM,43 nM,45 nM,,,
"UGCCUGUCCGAAGGAUAUCUCAGCGAUCUUUUGGGAGAAGGUCGGAUGCAACAUGAGGAUCACCCAUGUGUAUAUAUCGCUGAC [Eternabot solution 48] (Eterna round: R96, puzzle: Same State NG 1)",17.7 nM,13.9 nM,20.1 nM,,,
AGUCGAGCCUGAGCUCGACAAAAGCAUGUACAUGAGGAUCACCCAUGUCAUGUACAAGCUUUUUGCUCGUCUUAAAA [Mat - hsa-mir-208a - Mod of JL - D19] (puzzle: Sensor for hsa-mir-208a),,,,238 nM,13.5 nM,264 nM
"GCUCGAAUCAAAACCAACAUGAGGAUCACCCAUGUAUGUUGGUAGGAUAUCGUUUGUAAAACAAACGAGAAGGGCCAAACGAGC [SameState NG3 #4] (Eterna round: R96, puzzle: Same State NG 3)",53 nM,93.3 nM,118 nM,,,
"AACAUGAGGAUCACCCAUGUGAAAUACUGAGGCAGCUCAGGGAAGGAUAUGGUUGACACCCUCGACCAGAAGGUCCAAAAUAAA [Aquorxe] (Eterna round: R96, puzzle: Same State NG 3)",80.8 nM,108 nM,143 nM,,,
CUUGAUACACAUGAGGAUCACCCAUGUAUCAAGCUUUUUGCUCGUGUUAUUAUUUCCUUUAUUAGGAAUAUUAGGAA [rhiju-sequester-tail] (puzzle: Sensor for hsa-mir-208a version 2),,,,24.9 nM,14.4 nM,23.7 nM

# Reference: the supplement of paper PMC9170038
